B1: HI076-L2-6 (antibody, human IgG1, kappa)
heavy 1: QDQLVQSGAEVKKPGASVKVSCKASGFNIKDTYIQWVRQAPGQGLEWMGRIDPLRKQTKYREKFEGRVTITADTSTNTAYMELSSLRSEDTAVYYCVRSGREFDYWGQGTLVTVSSASTKGPSVFPLAPSSKSTSGGTAALGCLVKDYFPEPVTVSWNSGALTSGVHTFPAVLQSSGLYSLSSVVTVPSSSLGTQTYICNVNHKPSNTKVDKKVEPKSCDKTHTCPPCPAPELLGGPSVFLFPPKPKDTLMISRTPEVTCVVVDVSHGGSGGSEEPEVKFNWYVDGVEVHNAKTKPREEQYNSTYRVVSVLTVLHQDWLNGKEYKCKVSNDALPMPIEETISKAKGQPREPQVYTLPPSRCELTKNQVSLSCAVKGFYPSDIAVEWESNGQPENNYKTTPPVLDSDGSFFLVSKLTVDKSRWQQGNVFSCSVMHEALHNHYTQKSLSLSP
heavy 2: QDQLVQSGAEVKKPGASVKVSCKASGFNIKDTYIQWVRQAPGQGLEWMGRIDPLRKQTKYREKFEGRVTITADTSTNTAYMELSSLRSEDTAVYYCVRSGREFDYWGQGTLVTVSSASTKGPSVFPLAPSSKSTSGGTAALGCLVKDYFPEPVTVSWNSGALTSGVHTFPAVLQSSGLYSLSSVVTVPSSSLGTQTYICNVNHKPSNTKVDKKVEPKSCDKTHTCPPCPAPEYQWGPMVFLFPPKPKDTLMISRTPEVTCVVVDVSDEEPEVKFNWYVDGVEVHNAKTKPREEQYNATYRVVSVLTVLHQDWLNGKEYKCKVSNKALPAPIEKTISKAKGQPREPQVCTLPPSRDELTKNQVSLWCLVKGFYPSDIAVEWESNGQPENNYKTTPPVLDSDGSFFLYSKLTVDKSRWQQGNVFSCSVMHEALHNHYTQKSLSLSP
light: DIQMTQSPSSLSASVGDRVTITCRASQDIHKYIAWYQQKPGQAPRLLIQYTSTLQPGVPSRFSGSGSGTDYTFTISSLQPEDIATYYCLQYEQLRTFGGGTKVEIKRTVAAPSVFIFPPSDEQLKSGTASVVCLLNNFYPREAKVQWKVDNALQSGNSQESVTEQDSKDSTYSLSSTLTLSKADYEKHKVYACEVTHQGLSSPVTKSFNRGEC
notes: heterodimerized anti-EREG antibody: altered H240-Hl076 chain (Gly/Ser peptide in loop) with H240-Kn125 and L73-k0; also called Hl076-L2-6
B2: HI076-L3-3 (antibody, human IgG1, kappa)
heavy 1: QDQLVQSGAEVKKPGASVKVSCKASGFNIKDTYIQWVRQAPGQGLEWMGRIDPLRKQTKYREKFEGRVTITADTSTNTAYMELSSLRSEDTAVYYCVRSGREFDYWGQGTLVTVSSASTKGPSVFPLAPSSKSTSGGTAALGCLVKDYFPEPVTVSWNSGALTSGVHTFPAVLQSSGLYSLSSVVTVPSSSLGTQTYICNVNHKPSNTKVDKKVEPKSCDKTHTCPPCPAPELLGGPSVFLFPPKPKDTLMISRTPEVTCVVVDVSHEEPEVKFNWYVDGVEVHNAKTKPREEQYNSTGGSYRVVSVLTVLHQDWLNGKEYKCKVSNDALPMPIEETISKAKGQPREPQVYTLPPSRCELTKNQVSLSCAVKGFYPSDIAVEWESNGQPENNYKTTPPVLDSDGSFFLVSKLTVDKSRWQQGNVFSCSVMHEALHNHYTQKSLSLSP
heavy 2: QDQLVQSGAEVKKPGASVKVSCKASGFNIKDTYIQWVRQAPGQGLEWMGRIDPLRKQTKYREKFEGRVTITADTSTNTAYMELSSLRSEDTAVYYCVRSGREFDYWGQGTLVTVSSASTKGPSVFPLAPSSKSTSGGTAALGCLVKDYFPEPVTVSWNSGALTSGVHTFPAVLQSSGLYSLSSVVTVPSSSLGTQTYICNVNHKPSNTKVDKKVEPKSCDKTHTCPPCPAPEYQWGPMVFLFPPKPKDTLMISRTPEVTCVVVDVSDEEPEVKFNWYVDGVEVHNAKTKPREEQYNATYRVVSVLTVLHQDWLNGKEYKCKVSNKALPAPIEKTISKAKGQPREPQVCTLPPSRDELTKNQVSLWCLVKGFYPSDIAVEWESNGQPENNYKTTPPVLDSDGSFFLYSKLTVDKSRWQQGNVFSCSVMHEALHNHYTQKSLSLSP
light: DIQMTQSPSSLSASVGDRVTITCRASQDIHKYIAWYQQKPGQAPRLLIQYTSTLQPGVPSRFSGSGSGTDYTFTISSLQPEDIATYYCLQYEQLRTFGGGTKVEIKRTVAAPSVFIFPPSDEQLKSGTASVVCLLNNFYPREAKVQWKVDNALQSGNSQESVTEQDSKDSTYSLSSTLTLSKADYEKHKVYACEVTHQGLSSPVTKSFNRGEC
notes: heterodimerized anti-EREG antibody: altered H240-Hl076 chain (Gly/Ser peptide in loop) with H240-Kn125 and L73-k0; also called Hl076-L3-3
B3: HI076-L2-3 (antibody, human IgG1, kappa)
heavy 1: QDQLVQSGAEVKKPGASVKVSCKASGFNIKDTYIQWVRQAPGQGLEWMGRIDPLRKQTKYREKFEGRVTITADTSTNTAYMELSSLRSEDTAVYYCVRSGREFDYWGQGTLVTVSSASTKGPSVFPLAPSSKSTSGGTAALGCLVKDYFPEPVTVSWNSGALTSGVHTFPAVLQSSGLYSLSSVVTVPSSSLGTQTYICNVNHKPSNTKVDKKVEPKSCDKTHTCPPCPAPELLGGPSVFLFPPKPKDTLMISRTPEVTCVVVDVSHGGSEEPEVKFNWYVDGVEVHNAKTKPREEQYNSTYRVVSVLTVLHQDWLNGKEYKCKVSNDALPMPIEETISKAKGQPREPQVYTLPPSRCELTKNQVSLSCAVKGFYPSDIAVEWESNGQPENNYKTTPPVLDSDGSFFLVSKLTVDKSRWQQGNVFSCSVMHEALHNHYTQKSLSLSP
heavy 2: QDQLVQSGAEVKKPGASVKVSCKASGFNIKDTYIQWVRQAPGQGLEWMGRIDPLRKQTKYREKFEGRVTITADTSTNTAYMELSSLRSEDTAVYYCVRSGREFDYWGQGTLVTVSSASTKGPSVFPLAPSSKSTSGGTAALGCLVKDYFPEPVTVSWNSGALTSGVHTFPAVLQSSGLYSLSSVVTVPSSSLGTQTYICNVNHKPSNTKVDKKVEPKSCDKTHTCPPCPAPEYQWGPMVFLFPPKPKDTLMISRTPEVTCVVVDVSDEEPEVKFNWYVDGVEVHNAKTKPREEQYNATYRVVSVLTVLHQDWLNGKEYKCKVSNKALPAPIEKTISKAKGQPREPQVCTLPPSRDELTKNQVSLWCLVKGFYPSDIAVEWESNGQPENNYKTTPPVLDSDGSFFLYSKLTVDKSRWQQGNVFSCSVMHEALHNHYTQKSLSLSP
light: DIQMTQSPSSLSASVGDRVTITCRASQDIHKYIAWYQQKPGQAPRLLIQYTSTLQPGVPSRFSGSGSGTDYTFTISSLQPEDIATYYCLQYEQLRTFGGGTKVEIKRTVAAPSVFIFPPSDEQLKSGTASVVCLLNNFYPREAKVQWKVDNALQSGNSQESVTEQDSKDSTYSLSSTLTLSKADYEKHKVYACEVTHQGLSSPVTKSFNRGEC
notes: heterodimerized anti-EREG antibody: altered H240-Hl076 chain (Gly/Ser peptide in loop) with H240-Kn125 and L73-k0; also called Hl076-L2-3
B4: HI076-L2-9 (antibody, human IgG1, kappa)
heavy 1: QDQLVQSGAEVKKPGASVKVSCKASGFNIKDTYIQWVRQAPGQGLEWMGRIDPLRKQTKYREKFEGRVTITADTSTNTAYMELSSLRSEDTAVYYCVRSGREFDYWGQGTLVTVSSASTKGPSVFPLAPSSKSTSGGTAALGCLVKDYFPEPVTVSWNSGALTSGVHTFPAVLQSSGLYSLSSVVTVPSSSLGTQTYICNVNHKPSNTKVDKKVEPKSCDKTHTCPPCPAPELLGGPSVFLFPPKPKDTLMISRTPEVTCVVVDVSHGGSGGSGGSEEPEVKFNWYVDGVEVHNAKTKPREEQYNSTYRVVSVLTVLHQDWLNGKEYKCKVSNDALPMPIEETISKAKGQPREPQVYTLPPSRCELTKNQVSLSCAVKGFYPSDIAVEWESNGQPENNYKTTPPVLDSDGSFFLVSKLTVDKSRWQQGNVFSCSVMHEALHNHYTQKSLSLSP
heavy 2: QDQLVQSGAEVKKPGASVKVSCKASGFNIKDTYIQWVRQAPGQGLEWMGRIDPLRKQTKYREKFEGRVTITADTSTNTAYMELSSLRSEDTAVYYCVRSGREFDYWGQGTLVTVSSASTKGPSVFPLAPSSKSTSGGTAALGCLVKDYFPEPVTVSWNSGALTSGVHTFPAVLQSSGLYSLSSVVTVPSSSLGTQTYICNVNHKPSNTKVDKKVEPKSCDKTHTCPPCPAPEYQWGPMVFLFPPKPKDTLMISRTPEVTCVVVDVSDEEPEVKFNWYVDGVEVHNAKTKPREEQYNATYRVVSVLTVLHQDWLNGKEYKCKVSNKALPAPIEKTISKAKGQPREPQVCTLPPSRDELTKNQVSLWCLVKGFYPSDIAVEWESNGQPENNYKTTPPVLDSDGSFFLYSKLTVDKSRWQQGNVFSCSVMHEALHNHYTQKSLSLSP
light: DIQMTQSPSSLSASVGDRVTITCRASQDIHKYIAWYQQKPGQAPRLLIQYTSTLQPGVPSRFSGSGSGTDYTFTISSLQPEDIATYYCLQYEQLRTFGGGTKVEIKRTVAAPSVFIFPPSDEQLKSGTASVVCLLNNFYPREAKVQWKVDNALQSGNSQESVTEQDSKDSTYSLSSTLTLSKADYEKHKVYACEVTHQGLSSPVTKSFNRGEC
notes: heterodimerized anti-EREG antibody: altered H240-Hl076 chain (Gly/Ser peptide in loop) with H240-Kn125 and L73-k0; also called Hl076-L2-9
B5: HI076-L3-6 (antibody, human IgG1, kappa)
heavy 1: QDQLVQSGAEVKKPGASVKVSCKASGFNIKDTYIQWVRQAPGQGLEWMGRIDPLRKQTKYREKFEGRVTITADTSTNTAYMELSSLRSEDTAVYYCVRSGREFDYWGQGTLVTVSSASTKGPSVFPLAPSSKSTSGGTAALGCLVKDYFPEPVTVSWNSGALTSGVHTFPAVLQSSGLYSLSSVVTVPSSSLGTQTYICNVNHKPSNTKVDKKVEPKSCDKTHTCPPCPAPELLGGPSVFLFPPKPKDTLMISRTPEVTCVVVDVSHEEPEVKFNWYVDGVEVHNAKTKPREEQYNSTGGSGGSYRVVSVLTVLHQDWLNGKEYKCKVSNDALPMPIEETISKAKGQPREPQVYTLPPSRCELTKNQVSLSCAVKGFYPSDIAVEWESNGQPENNYKTTPPVLDSDGSFFLVSKLTVDKSRWQQGNVFSCSVMHEALHNHYTQKSLSLSP
heavy 2: QDQLVQSGAEVKKPGASVKVSCKASGFNIKDTYIQWVRQAPGQGLEWMGRIDPLRKQTKYREKFEGRVTITADTSTNTAYMELSSLRSEDTAVYYCVRSGREFDYWGQGTLVTVSSASTKGPSVFPLAPSSKSTSGGTAALGCLVKDYFPEPVTVSWNSGALTSGVHTFPAVLQSSGLYSLSSVVTVPSSSLGTQTYICNVNHKPSNTKVDKKVEPKSCDKTHTCPPCPAPEYQWGPMVFLFPPKPKDTLMISRTPEVTCVVVDVSDEEPEVKFNWYVDGVEVHNAKTKPREEQYNATYRVVSVLTVLHQDWLNGKEYKCKVSNKALPAPIEKTISKAKGQPREPQVCTLPPSRDELTKNQVSLWCLVKGFYPSDIAVEWESNGQPENNYKTTPPVLDSDGSFFLYSKLTVDKSRWQQGNVFSCSVMHEALHNHYTQKSLSLSP
light: DIQMTQSPSSLSASVGDRVTITCRASQDIHKYIAWYQQKPGQAPRLLIQYTSTLQPGVPSRFSGSGSGTDYTFTISSLQPEDIATYYCLQYEQLRTFGGGTKVEIKRTVAAPSVFIFPPSDEQLKSGTASVVCLLNNFYPREAKVQWKVDNALQSGNSQESVTEQDSKDSTYSLSSTLTLSKADYEKHKVYACEVTHQGLSSPVTKSFNRGEC
notes: heterodimerized anti-EREG antibody: altered H240-Hl076 chain (Gly/Ser peptide in loop) with H240-Kn125 and L73-k0; also called Hl076-L3-6

biological target: T1, FcγRIIIaV (human, UniProt P08637 17-208); assay: SPR (Biacore), antibody captured, FcγR as analyte, 1:1 Langmuir fit
T1 construct: extracellular domain
T1 sequence (P08637 other isoform, or with tags, fused parts or gaps): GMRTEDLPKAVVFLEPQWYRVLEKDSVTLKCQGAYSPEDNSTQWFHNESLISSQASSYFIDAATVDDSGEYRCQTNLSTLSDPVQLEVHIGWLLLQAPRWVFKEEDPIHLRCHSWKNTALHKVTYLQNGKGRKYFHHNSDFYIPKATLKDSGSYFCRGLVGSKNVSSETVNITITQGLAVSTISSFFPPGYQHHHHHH

Row | Binder | Kd [nM]
1 | B1 | 1.9
2 | B2 | 2.9
3 | B3 | 2.3
4 | B4 | 2.4
5 | B5 | 7.2
